According to IntAct's records for PubMed 20638386:

B1: Tubulin-folding cofactor A (Arabidopsis thaliana (Mouse-ear cress)), O04350 (parent)
chain: MATIRNLKIKTSTCKRIVKELHSYEKEVEREAAKTADMKDKGADPYDLKQQENVLGESRMMIPDCHKRLESALADLKSTLAELEETDEKEGPEIEDAKKTVADVEKQFPTEDA

Variants of: B1
Conditions: with tbb9_arath TUBB9, P29517
tbb9_arath TUBB9, P29517, sequence (P29517 whole entry): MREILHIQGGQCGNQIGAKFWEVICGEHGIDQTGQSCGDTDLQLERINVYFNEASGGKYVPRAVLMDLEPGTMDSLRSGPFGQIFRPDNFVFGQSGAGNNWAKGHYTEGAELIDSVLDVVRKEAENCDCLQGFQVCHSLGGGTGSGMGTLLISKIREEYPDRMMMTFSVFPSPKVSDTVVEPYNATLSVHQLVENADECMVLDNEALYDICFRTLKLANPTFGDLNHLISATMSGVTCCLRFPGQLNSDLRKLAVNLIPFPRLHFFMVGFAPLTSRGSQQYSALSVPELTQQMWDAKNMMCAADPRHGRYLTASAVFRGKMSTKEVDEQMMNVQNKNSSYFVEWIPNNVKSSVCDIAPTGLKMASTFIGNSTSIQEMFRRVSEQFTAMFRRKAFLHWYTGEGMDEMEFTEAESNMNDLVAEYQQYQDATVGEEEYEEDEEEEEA

Variant	effect of a mutation on the interaction
Y24A	disrupting interaction

Variants of: B1
Conditions: with tbb9_arath TUBB9, P29517
Remark: another data set of the same source

Variant	effect of a mutation on the interaction
E20A	disrupting interaction

Variants of: B1
Conditions: with tbb9_arath TUBB9, P29517
Remark: another data set of the same source

Variant	effect of a mutation on the interaction
E57A	disrupting interaction
